Laboratory results taken from article PMC2956063.
Where no end group is shown, it is not given here.

What was measured:
[1] = molecular target: normal recombinant fibrinogen (UniProt P02671); assay: plasmin protection assay
[2] = molecular target: recombinant γN308K fibrinogen (UniProt P02671); assay: plasmin protection assay

- GPRP concentration of full protection [1]: 5 mM
- GPRP concentration at which fragment D1 was readily evident [2]: 0.5 mM
- GPRP concentration of full protection [2]: > 20 mM
- fold weaker than normal fibrinogen [2]: 10 fold
Binder: GPRP-NH2 [GPRP-amide]
